Earlier results in publication PMC5753338.

Target: BAIAP2L1/IRTKS SH3 (Homo sapiens) (UniProt Q9UHR4)
Chain of UniProt Q9UHR4 (Q9UHR4 336-405): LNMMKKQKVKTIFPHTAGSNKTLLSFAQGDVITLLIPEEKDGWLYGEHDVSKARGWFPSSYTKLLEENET

In the case of EspFU PxxP motifs (from UniProt P0DJ88), the Kd is given as 500 nM.
